According to patent US20240352097A1 (NATIONAL SUN YAT SEN UNIVERSITY, published 2024):

T1: DENV-1 envelope (E) protein (Dengue virus serotype 1, UniProt P27909 281-680)
T1 chain: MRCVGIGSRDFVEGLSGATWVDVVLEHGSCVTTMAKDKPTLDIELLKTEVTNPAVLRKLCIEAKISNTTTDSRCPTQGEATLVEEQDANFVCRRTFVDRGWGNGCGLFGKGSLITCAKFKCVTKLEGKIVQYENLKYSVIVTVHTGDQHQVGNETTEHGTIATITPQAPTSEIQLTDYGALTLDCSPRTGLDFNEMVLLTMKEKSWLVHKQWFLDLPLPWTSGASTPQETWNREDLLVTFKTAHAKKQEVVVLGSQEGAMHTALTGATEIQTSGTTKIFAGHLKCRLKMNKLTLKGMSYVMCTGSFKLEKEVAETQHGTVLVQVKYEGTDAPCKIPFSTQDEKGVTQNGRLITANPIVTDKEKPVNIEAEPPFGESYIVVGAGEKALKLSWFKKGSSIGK

T2: DENV-3 envelope (E) protein (Dengue virus serotype 3, UniProt Q5UB51 281-678)
T2 chain: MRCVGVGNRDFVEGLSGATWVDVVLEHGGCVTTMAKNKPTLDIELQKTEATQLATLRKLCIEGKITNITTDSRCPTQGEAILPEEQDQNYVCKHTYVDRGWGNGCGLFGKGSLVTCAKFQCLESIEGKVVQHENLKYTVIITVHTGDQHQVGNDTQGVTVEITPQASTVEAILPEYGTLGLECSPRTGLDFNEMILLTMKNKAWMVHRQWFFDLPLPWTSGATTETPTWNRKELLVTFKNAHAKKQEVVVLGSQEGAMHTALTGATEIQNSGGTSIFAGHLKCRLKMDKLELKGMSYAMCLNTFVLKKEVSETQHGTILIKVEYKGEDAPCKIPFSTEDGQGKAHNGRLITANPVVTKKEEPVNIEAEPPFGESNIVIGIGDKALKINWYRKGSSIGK

T3: JEV envelope (E) protein (Japanese encephalitis virus, UniProt P0DOH8 295-699)
T3 chain: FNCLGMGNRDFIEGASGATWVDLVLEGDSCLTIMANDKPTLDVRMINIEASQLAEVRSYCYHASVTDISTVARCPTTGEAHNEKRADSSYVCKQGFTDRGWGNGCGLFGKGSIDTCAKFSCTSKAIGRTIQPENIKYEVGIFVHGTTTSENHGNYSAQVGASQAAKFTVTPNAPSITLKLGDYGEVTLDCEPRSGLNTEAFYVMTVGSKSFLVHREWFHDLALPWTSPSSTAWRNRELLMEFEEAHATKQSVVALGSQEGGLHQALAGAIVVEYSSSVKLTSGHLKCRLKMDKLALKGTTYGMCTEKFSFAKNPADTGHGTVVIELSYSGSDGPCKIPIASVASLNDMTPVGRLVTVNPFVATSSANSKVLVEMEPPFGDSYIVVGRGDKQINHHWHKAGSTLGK


What was measured:
Experiment in all cases: cell-based or functional assay
[1] = biological target: T1, DENV-1 envelope (E) protein
[2] = biological target: DENV-2 envelope (E) protein (Dengue virus serotype 2, UniProt P29990 281-679)
[3] = biological target: T2, DENV-3 envelope (E) protein
[4] = biological target: DENV-4 envelope (E) protein (Dengue virus serotype 4, UniProt Q58HT7 280-679)
JEV envelope (E) protein = biological target: T3, JEV envelope (E) protein

| Binder | neutralization (FRµNT50) [1] [µg/mL] | neutralization (FRµNT50) [2] | neutralization (FRµNT50) [3] [µg/mL] | neutralization (FRµNT50) [4] [µg/mL] | neutralization (FRµNT50) (JEV envelope (E) protein) [µg/mL] |
| --- | --- | --- | --- | --- | --- |
| K5-IgG1 (antibody, V domains shown) VH: EVQLLESGAEVKKPGSSVKVSCQASGDTFSNSDINWVRQAPGQGLEWMGGIIPAYDTTNYARTFQGRVAITADKSTSTVYMELSRLRSEDTAVYYCATDQRDYFGLGNHFNAQHFWGQGTLVTVSS VL: AIRMTQTPLSLSASVGDRVTITCRASQSISNYLNWYQQRPGKAPNLLIYTASNLHSGVPSRFSGSGSGTDFTLTISSLQPEDFATYYCQQSYSGGYTFGQGPSWEIK | 0.771 | 0.215 µg/mL | 1.21 | 1.51 | 0.682 |
| K8b-IgG1 (antibody, V domains shown) VH: QVQLVQPGAEVVKPGASVKLSCKTSGYTFTSNWMHWVKQAPGQGLEWIGEIDPSDSYTNYNQNFQGKAKLTVDKSTSTAYMEVSSLRSDDTAVYYCARGSNPYYYAMDYWGQGTSVTVSS VL: EIVMMQSPLTLSLSPGERATLSCRASQSVSSNYLAWYQQRPGQAPRLLIYGVSSRATGVPVRFSGSGSGTDFTLTISRLEPEDFAVYYCQHYGGSLSWTFGQGTKVEIK | – | 0.207 µg/mL | – | – | – |
| K8b-F(ab) (Fab, V domains shown) VH: QVQLVQPGAEVVKPGASVKLSCKTSGYTFTSNWMHWVKQAPGQGLEWIGEIDPSDSYTNYNQNFQGKAKLTVDKSTSTAYMEVSSLRSDDTAVYYCARGSNPYYYAMDYWGQGTSVTVSS VL: EIVMMQSPLTLSLSPGERATLSCRASQSVSSNYLAWYQQRPGQAPRLLIYGVSSRATGVPVRFSGSGSGTDFTLTISRLEPEDFAVYYCQHYGGSLSWTFGQGTKVEIKR | – | 37 nM | – | – | – |
